Consider two molecules from paper PMC12343972 (Nature Communications, 2025).

The target in data set [1] is Rad50 E1235Q (MREQ complex);Mre11 (Saccharomyces cerevisiae;Saccharomyces …, UniProt P12753;P32829 1-1312;1-692, E1235Q|). Description: cryo-EM 3.2 A.
Data set [2] concerns the target T1, S. cerevisiae Rad50-E1235Q (S. cerevisiae, UniProt P12753, E1235Q).
T1 sequence: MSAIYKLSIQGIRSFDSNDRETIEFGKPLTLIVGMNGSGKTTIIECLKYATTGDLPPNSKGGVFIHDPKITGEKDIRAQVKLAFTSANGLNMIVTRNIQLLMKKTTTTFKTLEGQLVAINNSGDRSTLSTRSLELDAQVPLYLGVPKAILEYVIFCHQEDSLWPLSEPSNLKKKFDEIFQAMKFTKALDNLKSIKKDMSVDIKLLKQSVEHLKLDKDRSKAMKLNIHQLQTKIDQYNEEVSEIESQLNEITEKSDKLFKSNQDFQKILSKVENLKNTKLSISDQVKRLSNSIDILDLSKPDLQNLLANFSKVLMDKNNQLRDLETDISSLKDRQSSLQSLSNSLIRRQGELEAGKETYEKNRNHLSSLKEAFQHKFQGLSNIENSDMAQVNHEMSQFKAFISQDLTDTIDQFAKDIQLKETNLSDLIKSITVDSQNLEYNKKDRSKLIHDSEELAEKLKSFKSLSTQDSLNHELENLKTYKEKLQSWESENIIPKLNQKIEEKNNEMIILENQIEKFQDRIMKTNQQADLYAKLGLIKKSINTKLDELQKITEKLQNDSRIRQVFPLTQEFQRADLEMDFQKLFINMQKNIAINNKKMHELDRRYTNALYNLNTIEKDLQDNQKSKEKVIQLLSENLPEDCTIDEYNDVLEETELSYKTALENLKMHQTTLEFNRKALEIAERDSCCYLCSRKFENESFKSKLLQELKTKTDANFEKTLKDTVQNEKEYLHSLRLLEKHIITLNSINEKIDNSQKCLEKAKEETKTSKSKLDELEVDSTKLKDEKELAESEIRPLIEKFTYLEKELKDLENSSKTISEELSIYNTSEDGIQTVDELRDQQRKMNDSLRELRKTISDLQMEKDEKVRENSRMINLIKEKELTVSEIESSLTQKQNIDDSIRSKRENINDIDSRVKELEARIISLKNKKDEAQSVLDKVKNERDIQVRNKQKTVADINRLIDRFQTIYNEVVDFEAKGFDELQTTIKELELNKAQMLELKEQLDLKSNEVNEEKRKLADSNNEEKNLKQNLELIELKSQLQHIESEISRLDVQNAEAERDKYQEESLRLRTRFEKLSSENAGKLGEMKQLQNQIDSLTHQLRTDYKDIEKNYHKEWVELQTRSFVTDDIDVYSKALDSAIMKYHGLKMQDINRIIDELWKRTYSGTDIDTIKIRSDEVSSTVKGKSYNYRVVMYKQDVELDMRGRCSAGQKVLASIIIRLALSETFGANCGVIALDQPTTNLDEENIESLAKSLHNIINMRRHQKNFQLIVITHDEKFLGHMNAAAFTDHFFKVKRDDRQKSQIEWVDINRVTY
Description: cryo-EM structure.

B1: 83-mer dsDNA (cryo-EM) (dsDNA)
DNA 1: TTGATAAGAGGTCATTTTTGCGGATGGCTTAGAGCTTAATTGCTGAATCTGGTGCTGTAGCTCAACATGTTTTAAATATGCAA
DNA 2: TTGCATATTTAAAACATGTTGAGCTACAGCACCAGATTCAGCAATTAAGCTCTAAGCCATCCGCAAAAATGACCTCTTATCAA
Turning to B1, the binding result in data set [1] was “binds”.

B2: S. cerevisiae Mre11 with a C-terminal 1xFLAG tag (natural protein)
chain: MDYPDPDTIRILITTDNHVGYNENDPITGDDSWKTFHEVMMLAKNNNVDMVVQSGDLFHVNKPSKKSLYQVLKTLRLCCMGDKPCELELLSDPSQVFHYDEFTNVNYEDPNFNISIPVFGISGNHDDASGDSLLCPMDILHATGLINHFGKVIESDKIKVVPLLFQKGSTKLALYGLAAVRDERLFRTFKDGGVTFEVPTMREGEWFNLMCVHQNHTGHTNTAFLPEQFLPDFLDMVIWGHEHECIPNLVHNPIKNFDVLQPGSSVATSLCEAEAQPKYVFILDIKYGEAPKMTPIPLETIRTFKMKSISLQDVPHLRPHDKDATSKYLIEQVEEMIRDANEETKQKLADDGEGDMVAELPKPLIRLRVDYSAPSNTQSPIDYQVENPRRFSNRFVGRVANGNNVVQFYKKRSPVTRSKKSGINGTSISDRDVEKLFSESGGELEVQTLVNDLLNKMQLSLLPEVGLNEAVKKFVDKDEKTALKEFISHEISNEVGILSTNEEFLRTDDAEEMKALIKQVKRANSVRPTPPKENDETNFAFNGNGLDSFRSSNREVRTGSPDITQSHVDNESRITHISQAESSKPTSKPKRVRTATKKKIPAFSDSTVISDAENELGDNNDAQDDVDIDENDIIMVSTDEEDASYGLLNGRKTKTKTRPAASTKTASRRGKGRASRTPKTDILGSLLAKKRK
For the molecule B2, the binding result in data set [2] is reported as “binds”.
